{
  "source": "patent US20140193401A1",
  "about": "(published 2014)",
  "test_in_all_cases": "SPR (BIAcore 3000), mAb 1B7 immobilised on CM5 chip, toxin injected",
  "key": {"[1]": {"biological_target": "T1, PTx-S1-220 E16A (Bordetella pertussis, UniProt P04977 35-254)", "T1 chain": "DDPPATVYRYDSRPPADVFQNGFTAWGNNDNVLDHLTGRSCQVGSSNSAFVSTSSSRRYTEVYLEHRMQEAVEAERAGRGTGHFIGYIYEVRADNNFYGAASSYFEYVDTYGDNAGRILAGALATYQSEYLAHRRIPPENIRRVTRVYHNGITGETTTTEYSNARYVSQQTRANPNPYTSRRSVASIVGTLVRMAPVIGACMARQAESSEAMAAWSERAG"}, "[2]": {"biological_target": "T2, PTx-S1-220 R79A (Bordetella pertussis, UniProt P04977 35-254)", "T2 chain": "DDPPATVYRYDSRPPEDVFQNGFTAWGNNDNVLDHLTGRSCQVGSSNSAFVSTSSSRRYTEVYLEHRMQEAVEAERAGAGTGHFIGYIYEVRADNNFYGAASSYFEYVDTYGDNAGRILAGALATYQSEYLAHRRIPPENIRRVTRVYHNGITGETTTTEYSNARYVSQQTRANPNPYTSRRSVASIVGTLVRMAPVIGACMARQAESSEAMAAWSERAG"}, "[3]": {"biological_target": "T3, PTx-S1-220 E155A (Bordetella pertussis, UniProt P04977 35-254)", "T3 chain": "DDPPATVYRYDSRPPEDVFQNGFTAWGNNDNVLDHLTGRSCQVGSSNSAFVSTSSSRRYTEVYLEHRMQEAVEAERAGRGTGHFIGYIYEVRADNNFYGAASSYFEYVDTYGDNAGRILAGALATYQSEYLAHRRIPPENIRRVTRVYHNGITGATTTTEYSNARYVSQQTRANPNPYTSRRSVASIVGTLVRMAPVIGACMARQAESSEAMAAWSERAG"}, "[4]": {"biological_target": "T4, PTx-S1-220 Y148A (Bordetella pertussis, UniProt P04977 35-254)", "T4 chain": "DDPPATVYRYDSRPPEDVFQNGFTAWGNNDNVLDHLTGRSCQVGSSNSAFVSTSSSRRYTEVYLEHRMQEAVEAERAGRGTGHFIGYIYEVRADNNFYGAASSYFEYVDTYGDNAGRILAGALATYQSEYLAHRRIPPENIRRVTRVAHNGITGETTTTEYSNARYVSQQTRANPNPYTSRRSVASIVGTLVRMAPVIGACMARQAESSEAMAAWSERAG"}, "[5]": {"biological_target": "T5, PTx-S1-220 H83A (Bordetella pertussis, UniProt P04977 35-254)", "T5 chain": "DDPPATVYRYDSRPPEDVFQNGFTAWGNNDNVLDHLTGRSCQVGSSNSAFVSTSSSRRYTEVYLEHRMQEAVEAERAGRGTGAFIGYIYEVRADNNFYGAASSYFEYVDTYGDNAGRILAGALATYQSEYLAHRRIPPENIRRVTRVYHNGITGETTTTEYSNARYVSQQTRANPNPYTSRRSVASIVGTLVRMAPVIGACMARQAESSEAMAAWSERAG"}, "[6]": {"biological_target": "T6, PTx-S1-220 E210A (Bordetella pertussis, UniProt P04977 35-254)", "T6 chain": "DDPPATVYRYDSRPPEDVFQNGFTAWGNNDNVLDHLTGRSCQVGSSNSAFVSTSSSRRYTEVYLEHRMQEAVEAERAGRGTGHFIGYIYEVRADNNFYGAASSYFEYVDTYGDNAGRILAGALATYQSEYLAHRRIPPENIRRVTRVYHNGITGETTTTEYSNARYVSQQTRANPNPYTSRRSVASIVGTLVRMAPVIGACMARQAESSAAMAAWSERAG"}, "[7]": {"biological_target": "T7, PTx-S1-220 T156A (Bordetella pertussis, UniProt P04977 35-254)", "T7 chain": "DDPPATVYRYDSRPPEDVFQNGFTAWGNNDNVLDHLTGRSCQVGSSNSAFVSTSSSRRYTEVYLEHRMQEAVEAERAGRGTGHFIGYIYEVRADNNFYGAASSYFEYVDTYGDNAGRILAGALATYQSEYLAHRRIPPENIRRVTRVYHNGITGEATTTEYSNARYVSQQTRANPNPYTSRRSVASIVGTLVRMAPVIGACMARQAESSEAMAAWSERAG"}, "[8]": {"biological_target": "T8, PTx-S1-220 R39A (Bordetella pertussis, UniProt P04977 35-254)", "T8 chain": "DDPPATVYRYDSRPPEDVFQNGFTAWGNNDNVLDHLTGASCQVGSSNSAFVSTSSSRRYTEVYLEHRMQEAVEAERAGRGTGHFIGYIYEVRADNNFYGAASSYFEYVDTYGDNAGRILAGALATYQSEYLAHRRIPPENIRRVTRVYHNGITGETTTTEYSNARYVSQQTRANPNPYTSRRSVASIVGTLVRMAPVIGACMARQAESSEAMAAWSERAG"}, "[9]": {"biological_target": "T9, PTx-S1-220 T159A (Bordetella pertussis, UniProt P04977 35-254)", "T9 chain": "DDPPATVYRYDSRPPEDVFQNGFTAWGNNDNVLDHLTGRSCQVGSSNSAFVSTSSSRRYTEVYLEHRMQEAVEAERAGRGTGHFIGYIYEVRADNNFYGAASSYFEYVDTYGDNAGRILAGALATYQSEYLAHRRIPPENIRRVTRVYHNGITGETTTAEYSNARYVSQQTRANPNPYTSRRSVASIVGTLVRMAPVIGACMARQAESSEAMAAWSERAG"}},
  "data": [
    {"binder": "murine monoclonal antibody 1B7 (antibody, V domains shown, also called mAb 1B7; 1B7 mAb) VH: EVQLQQSGSELVRPGASVKLSCKASGYKFTSYWMHWVKQRPGQGLEWIGNIFPGSGSTNYDEKFNSKATLTVDTSSNTAYMQLSSLTSEDSAVYYCTRWLSGAYFDYWGQGTTLTVSS VL: DIQMTQSPALMSASPGEKVTMTCSASSSVSFMYWYQQKPRSSPKPWIYLTSNLPSGVPARFSGSGSGTSYSLTISSMEAEDAATYYCQQWSSHPPTFGSGTKLEIKR", "values": [
      {"measurement": "koff", "setting": "[1]", "value": 0.0016, "unit": "s⁻¹"},
      {"measurement": "koff", "setting": "[2]", "value": 0.025, "unit": "s⁻¹"},
      {"measurement": "koff", "setting": "[3]", "value": 0.0011, "unit": "s⁻¹"},
      {"measurement": "koff", "setting": "[4]", "value": 0.029, "unit": "s⁻¹"},
      {"measurement": "koff", "setting": "[5]", "value": 0.01, "unit": "s⁻¹"},
      {"measurement": "koff", "setting": "[6]", "value": 0.0016, "unit": "s⁻¹"},
      {"measurement": "koff", "setting": "[7]", "value": 0.0011, "unit": "s⁻¹"},
      {"measurement": "koff", "setting": "[8]", "value": 0.003, "unit": "s⁻¹"},
      {"measurement": "koff", "setting": "[9]", "value": 0.0014, "unit": "s⁻¹"}
    ]}
  ]
}
